From patent publication US20220175839

Assays:
Assay in all cases: cell_activity
TALEN 103104 (synthetic) = details: pair with 103103; K562, 400 ng
TALEN 103074 (synthetic) = details: pair with 103073; K562, 400 ng
TALEN 103054 (synthetic) = details: pair with 103053; K562, 400 ng
TALEN 103085 (synthetic) = details: pair with 103086; K562, 400 ng
TALEN 103087 (synthetic) = details: pair with 103088; K562, 400 ng
TALEN 103064 (synthetic) = details: pair with 103063; K562, 400 ng
TALEN 103090 (synthetic) = details: pair with 103089; K562, 400 ng
TALEN 103093 (synthetic) = details: pair with 103094; K562, 400 ng
TALEN 103079 (synthetic) = details: pair with 103080; K562, 400 ng
TALEN 103098 (synthetic) = details: pair with 103097; K562, 400 ng
TALEN 103049 (synthetic) = details: pair with 103050; K562, 400 ng
TALEN 103068 (synthetic) = details: pair with 103067; K562, 400 ng
TALEN 103105 (synthetic) = details: pair with 103106; K562, 400 ng
TALEN 103103 (synthetic) = details: pair with 103104; K562, 400 ng
TALEN 103077 (synthetic) = details: pair with 103078; K562, 400 ng
TALEN 103058 (synthetic) = details: pair with 103057; K562, 400 ng
TALEN 103073 (synthetic) = details: pair with 103074; K562, 400 ng
TALEN 103067 (synthetic) = details: pair with 103068; K562, 400 ng
TALEN 103071 (synthetic) = details: pair with 103072; K562, 400 ng
TALEN 103052 (synthetic) = details: pair with 103051; K562, 400 ng
TALEN 103082 (synthetic) = details: pair with 103081; K562, 400 ng
TALEN 103051 (synthetic) = details: pair with 103052; K562, 400 ng
[1] = system: SBS55254 ZFN (TCRA) (synthetic); details: pair with 55248; T cells, TRAC 180, day 10
TALEN 103066 (synthetic) = details: pair with 103065; K562, 400 ng
TALEN 103056 (synthetic) = details: pair with 103055; K562, 400 ng
TALEN 103101 (synthetic) = details: pair with 103102; K562, 400 ng
TALEN 103057 (synthetic) = details: pair with 103058; K562, 400 ng
TALEN 103055 (synthetic) = details: pair with 103056; K562, 400 ng
TALEN 103094 (synthetic) = details: pair with 103093; K562, 400 ng
TALEN 103097 (synthetic) = details: pair with 103098; K562, 400 ng
TALEN 103099 (synthetic) = details: pair with 103100; K562, 400 ng
TALEN 103088 (synthetic) = details: pair with 103087; K562, 400 ng
TALEN 103069 (synthetic) = details: pair with 103070; K562, 400 ng
TALEN 103050 (synthetic) = details: pair with 103049; K562, 400 ng
TALEN 103076 (synthetic) = details: pair with 103075; K562, 400 ng
TALEN 103092 (synthetic) = details: pair with 103091; K562, 400 ng
TALEN 103081 (synthetic) = details: pair with 103082; K562, 400 ng
TALEN 103100 (synthetic) = details: pair with 103099; K562, 400 ng
TALEN 103062 (synthetic) = details: pair with 103061; K562, 400 ng
TALEN 103053 (synthetic) = details: pair with 103054; K562, 400 ng
TALEN 103096 (synthetic) = details: pair with 103095; K562, 400 ng
TALEN 103061 (synthetic) = details: pair with 103062; K562, 400 ng
TALEN 103091 (synthetic) = details: pair with 103092; K562, 400 ng
TALEN 103086 (synthetic) = details: pair with 103085; K562, 400 ng
TALEN 103095 (synthetic) = details: pair with 103096; K562, 400 ng
TALEN 103065 (synthetic) = details: pair with 103066; K562, 400 ng
TALEN 103075 (synthetic) = details: pair with 103076; K562, 400 ng
TALEN 103084 (synthetic) = details: pair with 103083; K562, 400 ng
TALEN 103089 (synthetic) = details: pair with 103090; K562, 400 ng
TALEN 103072 (synthetic) = details: pair with 103071; K562, 400 ng
TALEN 103083 (synthetic) = details: pair with 103084; K562, 400 ng
TALEN 103070 (synthetic) = details: pair with 103069; K562, 400 ng
TALEN 103063 (synthetic) = details: pair with 103064; K562, 400 ng
TALEN 103102 (synthetic) = details: pair with 103101; K562, 400 ng

## ATACTCATCTTTTTCAGTGGG (double strand) [TALEN 103104 site]
TALEN 103104 (synthetic)
  activity: 44.9 % indel

## ATAGCAATTCAGGAAATTTGA (double strand) [TALEN 103074 site]
TALEN 103074 (synthetic)
  activity: 3 % indel

## ATAGCCTCCAGGCCAGAAAGA (double strand) [TALEN 103054 site]
TALEN 103054 (synthetic)
  activity: 32.4 % indel

## ATCCATCCGACATTGAAGTTG (double strand) [TALEN 103085 site]
TALEN 103085 (synthetic)
  activity: 3.9 % indel

## ATCCGACATTGAAGTTGACTT (double strand) [TALEN 103087 site]
TALEN 103087 (synthetic)
  activity: 10.5 % indel

## ATGACGTGAGTAAACCTGAAT (double strand) [TALEN 103064 site]
TALEN 103064 (synthetic)
  activity: 14.8 % indel

## ATGCTCCACTTTTTCAATTCT (double strand) [TALEN 103090 site]
TALEN 103090 (synthetic)
  activity: 16.1 % indel

## ATGGAGAGAGAATTGAAAAAG (double strand) [TALEN 103093 site]
TALEN 103093 (synthetic)
  activity: 20.2 % indel

## ATGTGTCTGGGTTTCATCCAT (double strand) [TALEN 103079 site]
TALEN 103079 (synthetic)
  activity: 42.3 % indel

## ATTCAGTGTAGTACAAGAGAT (double strand) [TALEN 103098 site]
TALEN 103098 (synthetic)
  activity: 52 % indel

## ATTCGGGCCGAGATGTCTCGC (double strand) [TALEN 103049 site]
TALEN 103049 (synthetic)
  activity: 19.5 % indel

## ATTCTCTGCTGGATGACGTGA (double strand) [TALEN 103068 site]
TALEN 103068 (synthetic)
  activity: 49.3 % indel

## CTACACTGAATTCACCCCCAC (double strand) [TALEN 103105 site]
TALEN 103105 (synthetic)
  activity: 14.2 % indel

## CTATCTCTTGTACTACACTGA (double strand) [TALEN 103103 site]
TALEN 103103 (synthetic)
  activity: 44.9 % indel

## CTATGTGTCTGGGTTTCATCC (double strand) [TALEN 103077 site]
TALEN 103077 (synthetic)
  activity: 17.1 % indel

## CTCACGCTGGATAGCCTCCAG (double strand) [TALEN 103058 site]
TALEN 103058 (synthetic)
  activity: 46.2 % indel

## CTCACGTCATCCAGCAGAGAA (double strand) [TALEN 103073 site]
TALEN 103073 (synthetic)
  activity: 3 % indel

## CTCAGGTACTCCAAAGATTCA (double strand) [TALEN 103067 site]
TALEN 103067 (synthetic)
  activity: 49.3 % indel

## CTCCAAAGATTCAGGTTTACT (double strand) [TALEN 103071 site]
TALEN 103071 (synthetic)
  activity: 13.3 % indel

## CTCCAGGCCAGAAAGAGAGAG (double strand) [TALEN 103052 site]
TALEN 103052 (synthetic)
  activity: 63.8 % indel

## CTCCATTCTTCAGTAAGTCAA (double strand) [TALEN 103082 site]
TALEN 103082 (synthetic)
  activity: 27.5 % indel

## CTCCGTGGCCTTAGCTGTGCT (double strand) [TALEN 103051 site]
TALEN 103051 (synthetic)
  activity: 63.8 % indel

## CTCCTGAAAGTGGCCGGGTTTAATCTGC (double strand) [TCRA 55254 site]
[1]
  activity: 66 % indel

## CTCTGCTGGATGACGTGAGTA (double strand) [TALEN 103066 site]
TALEN 103066 (synthetic)
  activity: 41.2 % indel

## CTGGATAGCCTCCAGGCCAGA (double strand) [TALEN 103056 site]
TALEN 103056 (synthetic)
  activity: 25.1 % indel

## CTGGTCTTTCTATCTCTTGTA (double strand) [TALEN 103101 site]
TALEN 103101 (synthetic)
  activity: 15.5 % indel

## CTGTGCTCGCGCTACTCTCTC (double strand) [TALEN 103057 site]
TALEN 103057 (synthetic)
  activity: 46.2 % indel

## CTTAGCTGTGCTCGCGCTACT (double strand) [TALEN 103055 site]
TALEN 103055 (synthetic)
  activity: 25.1 % indel

## CTTGCTGAAAGACAAGTCTGA (double strand) [TALEN 103094 site]
TALEN 103094 (synthetic)
  activity: 20.2 % indel

## CTTGTCTTTCAGCAAGGACTG (double strand) [TALEN 103097 site]
TALEN 103097 (synthetic)
  activity: 52 % indel

## CTTTCAGCAAGGACTGGTCTT (double strand) [TALEN 103099 site]
TALEN 103099 (synthetic)
  activity: 15.3 % indel

## CTTTTTCAATTCTCTCTCCAT (double strand) [TALEN 103088 site]
TALEN 103088 (synthetic)
  activity: 10.5 % indel

## GTACTCCAAAGATTCAGGTTT (double strand) [TALEN 103069 site]
TALEN 103069 (synthetic)
  activity: 27.9 % indel

## GTAGCGCGAGCACAGCTAAGG (double strand) [TALEN 103050 site]
TALEN 103050 (synthetic)
  activity: 19.5 % indel

## GTCAACTTCAATGTCGGATGG (double strand) [TALEN 103076 site]
TALEN 103076 (synthetic)
  activity: 1.5 % indel

## GTCTGAATGCTCCACTTTTTC (double strand) [TALEN 103092 site]
TALEN 103092 (synthetic)
  activity: 48.5 % indel

## GTCTGGGTTTCATCCATCCGA (double strand) [TALEN 103081 site]
TALEN 103081 (synthetic)
  activity: 27.5 % indel

## GTGAATTCAGTGTAGTACAAG (double strand) [TALEN 103100 site]
TALEN 103100 (synthetic)
  activity: 15.3 % indel

## GTGAGTAAACCTGAATCTTTG (double strand) [TALEN 103062 site]
TALEN 103062 (synthetic)
  activity: 22.9 % indel

## GTGGCCTTAGCTGTGCTCGCG (double strand) [TALEN 103053 site]
TALEN 103053 (synthetic)
  activity: 32.4 % indel

## GTGTAGTACAAGAGATAGAAA (double strand) [TALEN 103096 site]
TALEN 103096 (synthetic)
  activity: 42 % indel

## GTGTCTTTTCCCGATATTCCT (double strand) [TALEN 103061 site]
TALEN 103061 (synthetic)
  activity: 22.9 % indel

## GTTGACTTACTGAAGAATGGA (double strand) [TALEN 103091 site]
TALEN 103091 (synthetic)
  activity: 48.5 % indel

## TTCAATTCTCTCTCCATTCTT (double strand) [TALEN 103086 site]
TALEN 103086 (synthetic)
  activity: 3.9 % indel

## TTCAGACTTGTCTTTCAGCAA (double strand) [TALEN 103095 site]
TALEN 103095 (synthetic)
  activity: 42 % indel

## TTCCTCAGGTACTCCAAAGAT (double strand) [TALEN 103065 site]
TALEN 103065 (synthetic)
  activity: 41.2 % indel

## TTCCTGAATTGCTATGTGTCT (double strand) [TALEN 103075 site]
TALEN 103075 (synthetic)
  activity: 1.5 % indel

## TTCTCTCTCCATTCTTCAGTA (double strand) [TALEN 103084 site]
TALEN 103084 (synthetic)
  activity: 32.2 % indel

## TTGAAGTTGACTTACTGAAGA (double strand) [TALEN 103089 site]
TALEN 103089 (synthetic)
  activity: 16.1 % indel

## TTGACTTTCCATTCTCTGCTG (double strand) [TALEN 103072 site]
TALEN 103072 (synthetic)
  activity: 13.3 % indel

## TTTCATCCATCCGACATTGAA (double strand) [TALEN 103083 site]
TALEN 103083 (synthetic)
  activity: 32.2 % indel

## TTTCCATTCTCTGCTGGATGA (double strand) [TALEN 103070 site]
TALEN 103070 (synthetic)
  activity: 27.9 % indel

## TTTTCCCGATATTCCTCAGGT (double strand) [TALEN 103063 site]
TALEN 103063 (synthetic)
  activity: 14.8 % indel

## TTTTTCAGTGGGGGTGAATTC (double strand) [TALEN 103102 site]
TALEN 103102 (synthetic)
  activity: 15.5 % indel
